From patent US20240052037A1 (published 2024)
Changes are numbered by the printed parent chain. One block for each binder: values may come before it.

Assays:
[1] = biological target: recombinant human PD-L1 (Sino Biological Inc., catalog number 10084-H08H) (human, UniProt Q9NZQ7 19-239); assay: ELISA
[2] = biological target: human CD47 (ACROBiosystems, catalog number CD7-H5227) (human, UniProt Q08722 19-139); assay: ELISA
[3] = biological target: T1, human PD-L1-Fc (ACROBiosystems, catalog number PD1-H5258) (human, UniProt Q9NZQ7 19-238); assay: competition ELISA; blocking PD-L1/PD-1
T1 sequence (Q9NZQ7 19-238): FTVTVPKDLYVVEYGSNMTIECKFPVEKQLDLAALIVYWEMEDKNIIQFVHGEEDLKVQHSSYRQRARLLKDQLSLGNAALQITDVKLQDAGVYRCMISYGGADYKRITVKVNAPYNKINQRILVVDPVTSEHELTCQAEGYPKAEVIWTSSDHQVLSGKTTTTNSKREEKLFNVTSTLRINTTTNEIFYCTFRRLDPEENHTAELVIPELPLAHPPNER

[4] = biological target: recombinant human CD47-Fc (ACROBiosystems, catalog number CD7-H52A5) (human, UniProt Q08722 19-139); assay: competition ELISA; blocking CD47/SIRPα
recombinant human CD47-Fc (ACROBiosystems, catalog number CD7-H52A5), sequence (Q08722 19-139): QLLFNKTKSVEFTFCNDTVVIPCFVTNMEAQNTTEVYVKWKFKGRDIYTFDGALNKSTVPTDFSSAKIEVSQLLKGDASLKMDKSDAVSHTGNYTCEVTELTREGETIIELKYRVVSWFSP

[5] = biological target: T1, human PD-L1-Fc (ACROBiosystems, catalog …); assay: competition ELISA; blocking PD-L1/CD80

recombinant human PD-L1 (Sino Biological Inc., catalog number 10084-H08H), sequence (Q9NZQ7 19-239): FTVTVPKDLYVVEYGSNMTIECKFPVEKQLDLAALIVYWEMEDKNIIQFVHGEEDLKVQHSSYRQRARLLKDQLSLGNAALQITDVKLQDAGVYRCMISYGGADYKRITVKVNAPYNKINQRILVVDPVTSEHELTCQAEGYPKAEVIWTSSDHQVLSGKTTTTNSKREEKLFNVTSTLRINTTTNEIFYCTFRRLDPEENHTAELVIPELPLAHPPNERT
human CD47 (ACROBiosystems, catalog number CD7-H5227), sequence (Q08722 19-139): as the sequence (Q08722 19-139) above

B3: anti-PD-L1/anti-CD47 heterodimeric antibody BH3014 (bispecific antibody)
heavy 1: EVQLVQSGAEVKKPGSSVKVSCKASGFNIEDTYIHWVRQAPGQGLEWMGRIDPANANTKYDPKFQGRVTITADTSTNTAYMELSSLRSEDTAVYYCGRGLGAWFAYWGQGTLVTVSS
light 1: DIQMTQSPSSLSASVGDRVTITCKASQDVHTAVAWIQQKPGKSPKLLIYSASNRYTGVPSRFSGSGSGTDFTFTISSLQPEDIATYYCQQHYITPLTFGQGTKLEIKRTVAAPSVFIFPPSDEQLKSGTASVVCLLNNFYPREAKVQWKVDNALQSGNSQESVTEQDSKDSTYSLSSTLTLSKADYEKHKVYACEVTHQGLSSPVTKSFNRGEC
heavy 2: QVQLVQSGAEVKKPGSSVKVSCKASGFNIEDIYMHWVRQAPGQGLEWMGRIDPANDNTKYGPKLQGRVTITADESTNTAYMELSSLRSEDTAVYYCARRIPTDIMDYWGQGTTVTVSSASTKGPSVFPLAPSSKSTSGGTAALGCLVKDYFPEPVTVSWNSGALTSGVHTFPAVLQSSGLYSLSSVVTVPSSSLGTQTYICNVNHKPSNTKVDKKVEPKSCDKTHTCPPCPAPELLGGPSVFLFPPKPKDTLMISRTPEVTCVVVDVSHEDPEVKFNWYVDGVEVHNAKTKPREEQYASTYRVVSVLTVLHQDWLNGKEYKCKVSNKALPAPIEKTISKAKGQPREPQVYTEPPSRDELTKNQVSLTCLVKGFYPSDIAVEWESNGQPENNYKTTPPVLDSDGSFFLLSVLTVDKSRWQQGNVFSCSVMHEALHNHYTQKSLSLSPGK
light 2: DIQMTQSPSSLSASVGDRVTITCKASQNVRTSIAWYQQKPGKAPKRLIYLASNRHTGVPSRFSGSGSGTEFTLTISNLQPEDFATYYCLQHWNYPFTFGQGTKLEIKRTVAAPSVFIFPPSDEQLKSGTASVVCLLNNFYPREAKVQWKVDNALQSGNSQESVTEQDSKDSTYSLSSTLTLSKADYEKHKVYACEVTHQGLSSPVTKSFNRGEC
- EC50 [1]: 0.234 nM
- EC50 [2]: 68.4 nM
- EC50 [3]: 1.63 nM
- EC50 [4]: 802 nM
- EC50 [5]: 1.5 nM

B4: anti-PD-L1/anti-CD47 heterodimeric antibody BH3015 (bispecific antibody)
heavy 1: B3 heavy 1
light 1: B3 light 1
heavy 2: B3 heavy 2 with E74T, N77S, A97V
light 2: B3 light 2
- EC50 [1]: 0.262 nM
- EC50 [2]: 2.49 nM
- EC50 [3]: 1.67 nM
- EC50 [4]: 12.8 nM
- EC50 [5]: 1.97 nM

B5: CD47 monoclonal antibody (heavy and light chain variable region sequences of the humanized sequences z11 of the antibody CD47-18-5 and the constant region … (antibody, V domains shown)
VH: QVQLVQSGAEVKKPGSSVKVSCKASGFNIEDIYMHWVRQAPGQGLEWMGRIDPANDNTKYGPKLQGRVTITADTSTNTAYMELSSLRSEDTAVYYCVRRIPTDIMDYWGQGTTVTVSS
VL: DIQMTQSPSSLSASVGDRVTITCKASQNVRTSIAWYQQKPGKAPKTLIYLASNRHTGVPSRFSGSGSGTEFTLTISNLQPEDFATYYCLQHWNYPFTFGQGTKLEIK
- EC50 [2]: 0.094 nM
- EC50 [4]: 2.26 nM

Second part, the binder after the results:

- EC50 [1]: 0.251 nM
- EC50 [2]: 0.491 nM
- EC50 [3]: 1.5 nM
- EC50 [4]: 6.12 nM
- EC50 [5]: 1.29 nM
B1: anti-PD-L1/anti-CD47 heterodimeric antibody BH3016 (bispecific antibody)
heavy 1: B3 heavy 1
light 1: B3 light 1
heavy 2: B3 heavy 2 with N77S, A97V
light 2: B3 light 2 with R46T

- EC50 [1]: 0.261 nM
- EC50 [2]: 0.134 nM
- EC50 [3]: 1.54 nM
- EC50 [4]: 4.73 nM
- EC50 [5]: 1.78 nM
B2: anti-PD-L1/anti-CD47 heterodimeric antibody BH3012h (bispecific antibody)
heavy 1: B3 heavy 1
light 1: B3 light 1
heavy 2: B3 heavy 2 with E74T, A97V
light 2: B3 light 2 with R46T
